Data on eleven molecules can be found in US20220275100A1 (JIANGSU HENGRUI MEDICINE, published 2022).

In test [1] the target is T1, Fusion protein of CD38 extracellular domain with His tag: CD38-ECD-His (human, UniProt P28907 43-300).
T1 construct: unlabelled analyte in Biacore; also called human CD38-ECD-His; Human CD38-His
Put plainly: SPR (Biacore), antibody captured by anti-human Fc, CD38-ECD-His as analyte.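 Also: human CD38-ECD-His flowed over the captured antibody with the signal tracked in real time, and association and dissociation curves were fitted to derive the affinity values.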 On the technique in general: Surface plasmon resonance follows binding to a sensor surface in real time, without labels.
Protocol: (§1) Then the human CD38-ECD-His antigen passed through the surface of the chip, and a real-time detection for the reaction signal was performed with Biacore instrument. The resulting binding and dissociation curves were fitted to calculate the affinity values. After the dissociation of each cycle was completed in the experiment, the biochip was washed and regenerated with the regeneration solution supplied in the Human Fc Capture Kit (GE).

The target of test [2] is T1, Fusion protein of CD38 extracellular …. Put plainly: cell-based or functional assay.
Test [3] has as its target T2, full-length human CD38 on CHO-S cells (CD38-FL-CHOS) (human, UniProt P28907 1-300).
T2 construct: whole, on cells; also called natural CD38 present on the cell surface
The test can be described thus: flow cytometry on CD38-FL-CHO-S cells.

Test [4] has as its target T1, Fusion protein of CD38 extracellular …. Put plainly: ELISA, biotin-labeled CD38-ECD-His on streptavidin-coated plate. (In general: In an ELISA, binding on a coated surface is turned into a signal by an enzyme label.)
Protocol: The affinity of the anti-CD38 antibodies were determined by the amount of the antibodies binding to CD38 immobilized on the ELISA plate. […] The plate was washed again and tetramethyl benzidine solution was added for color reaction. Finally, stop solution was added. OD450 was measured on a microplate reader and EC50 value was calculated.
Test [5] shares this target. The test can be described thus: SPR (Biacore), antibody captured as ligand, Human CD38-His as analyte.
Protocol: as §1

Residue numbers refer to the chain shown, from its start. In names and notes the source's numbering stands.

As usually defined, the Kd is a measure of binding affinity in units of concentration. The koff is the first-order rate constant of dissociation. Read a high koff as a short-lived complex. The term kon denotes the rate constant with which the complex forms. One may read the EC50 as the midpoint of the concentration-response curve. A high value points to lower potency in that assay.

B1: ch-009 (antibody, human IgG1, V domains shown)
VH: EFQLQQSGPELVKPGASVKISCKASGYSFTDYNLNWVKQSNGKSLEWIGVINPKYDAINYNQKFKDKATLTVDQSSSTAYMQLSSLTSEDSAVYYCAREGWGKALDYWGPGTSVIVSS
VL: DFVLTQSPATLSVTPGDSVSLSCRASQSIYTNLHWYQQKSHESPRLLIKYASQSISGIPSRFSGSGSGTDFTLSINSVETEDSGMYFCQQSNSWPLTFGAGTKLELK
notes: also called chimeric antibody of hybridoma clone m009
In test [1], B1 showed a Kd of 0.234 nM, a koff of 0.000477 s⁻¹ and a kon of 2.04e+06 M⁻¹ s⁻¹.

B2: ch-011 (antibody, human IgG1, V domains shown)
VH: EVQLVESGGGLVKPGGSLKLSCAASGFTFSDYGMHWVRQAPEKGLEWVAFISSGSSSIYYADTVKGRFTISRDNAKNTLFLQMTSLRSEDTAMYSCARNYVSSYGYFDYWGQGTTLTVSS
VL: DIVMTQSPASLAVSLGQRATISCRASENVDNYGISFMHWYQQKPGQPPKLLIYRASNLESGIPARFSGSGSRTDFTLTINPVETDDVATYYCQQSNKDPLTFGSGTKLEIK
notes: also called chimeric antibody of hybridoma clone m011
In test [1], B2 showed an equilibrium dissociation constant (Kd) of 0.199 nM, a koff of 0.00148 s⁻¹ and a kon of 7.46e+06 M⁻¹ s⁻¹.

B3: ch-160 (antibody, human IgG1, V domains shown)
VH: B2 VH with A23V, V48I, S53T, S57N, A61V, T63K, S95Y
VL: B2 VL with M4L, I21V, N28S, S95T, S104G, I110L
notes: also called chimeric antibody of hybridoma clone m160
In test [1], B3 came in with a Kd of 0.062 nM, a koff of 0.00017 s⁻¹ and a kon of 2.74e+06 M⁻¹ s⁻¹.

B4: h011-06 (antibody, human IgG1, kappa, V domains shown)
VH: B2 VH with K13Q, K19R, E42G, N77S, T78S, S88A, M93V, L116V
VL: DIVMTQSPDSLAVSLGERATINCRASENVDNYGISFMHWYQQKPGQPPKLLIYRASNLESGIPDRFSGSGSRTDFTLTISSLQAEDVATYYCQQSNKDPLTFGGGTKVEIKR
In test [1], B4 showed a Kd of 0.3 nM, a koff of 0.00201 s⁻¹ and a kon of 6.71e+06 M⁻¹ s⁻¹.

B5: h160-05 (antibody, human IgG1, kappa)
heavy: not shown
light: DIVMTQSPASLAVSLGERATINCRASESVDNYGISFMHWYQQKPGQPPKLLIYRASNLESGVPDRFSGSGSGTDFTLTISSLQAEDVAVYYCQQTNKDPLTFGGGTKVEIKRTVAAPSVFIFPPSDEQLKSGTASVVCLLNNFYPREAKVQWKVDNALQSGNSQESVTEQDSKDSTYSLSSTLTLSKADYEKHKVYACEVTHQGLSSPVTKSFNRGEC
In test [1], B5 returned an equilibrium dissociation constant (Kd) of 0.0691 nM, a koff of 0.000141 s⁻¹ and a kon of 2.05e+06 M⁻¹ s⁻¹.

B6: hu11E (antibody, human IgG1, kappa)
heavy: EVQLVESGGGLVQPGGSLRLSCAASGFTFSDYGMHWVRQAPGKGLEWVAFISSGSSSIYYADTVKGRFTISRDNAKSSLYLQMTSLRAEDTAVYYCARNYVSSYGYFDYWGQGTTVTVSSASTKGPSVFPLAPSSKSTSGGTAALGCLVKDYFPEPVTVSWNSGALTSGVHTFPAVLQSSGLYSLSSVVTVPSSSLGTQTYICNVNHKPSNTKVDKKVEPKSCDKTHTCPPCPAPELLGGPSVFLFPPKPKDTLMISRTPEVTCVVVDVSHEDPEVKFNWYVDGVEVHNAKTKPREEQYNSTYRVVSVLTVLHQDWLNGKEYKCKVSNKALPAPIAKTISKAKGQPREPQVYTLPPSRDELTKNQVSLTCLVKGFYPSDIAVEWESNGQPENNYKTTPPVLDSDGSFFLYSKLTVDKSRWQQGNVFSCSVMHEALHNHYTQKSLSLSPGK
light: B5 light with A9D, S28N, T95S
notes: Humanized, human IgG1-E333A / kappa; also called h011-01E
As to B6, in test [2], the “IC50 (µg/ml), inhibition of CD38 enzyme activity (cGDPR production from NGD)” value (from here on “IC50 (µg/ml), inhibition”) came to 1.83 µg/mL and the “Imax (Maximum inhibition rate %)” value amounted to 44.3%. The same molecule gave an EC50 in test [3] of 0.481 µg/mL. In test [4], this molecule had an EC50 of 0.0276 µg/mL. In test [5], this molecule had a Kd of 0.568 nM, a koff of 0.00117 s⁻¹ and a kon of 2.07e+06 M⁻¹ s⁻¹.

B7: hu160E (antibody, human IgG1, kappa)
heavy: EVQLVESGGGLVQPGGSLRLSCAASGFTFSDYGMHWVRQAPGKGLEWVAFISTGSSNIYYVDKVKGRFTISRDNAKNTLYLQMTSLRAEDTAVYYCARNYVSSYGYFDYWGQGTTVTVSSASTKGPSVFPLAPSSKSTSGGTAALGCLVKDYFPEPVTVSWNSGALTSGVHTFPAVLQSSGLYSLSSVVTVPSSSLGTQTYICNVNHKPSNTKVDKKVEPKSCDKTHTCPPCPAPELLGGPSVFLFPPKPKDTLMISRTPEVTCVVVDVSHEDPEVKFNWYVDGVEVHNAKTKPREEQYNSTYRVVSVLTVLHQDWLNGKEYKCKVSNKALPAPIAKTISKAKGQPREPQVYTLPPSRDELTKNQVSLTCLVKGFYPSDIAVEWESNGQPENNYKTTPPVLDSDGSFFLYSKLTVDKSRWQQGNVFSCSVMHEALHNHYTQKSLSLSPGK
light: B5 light
notes: Humanized, human IgG1-E333A / kappa; also called h160-01E
Take B7: in test [2], the “IC50 (µg/ml), inhibition” value came out at 1.2 µg/mL and the “Imax (Maximum inhibition rate %)” value was determined as 47.7%. Also, a half-maximal response in test [3] (EC50) required 0.474 µg/mL. In test [4], this molecule registered an EC50 of 0.028 µg/mL. In test [5], binding was put at a Kd of 0.0585 nM, the koff stood at 0.000115 s⁻¹ and the kon stood at 1.96e+06 M⁻¹ s⁻¹.

B8: h160-08 (antibody, human IgG1, kappa, V domains shown)
VH: EVQLVESGGGLVQPGGSLRLSCAASGFTFSDYGMHWVRQAPGKGLEWIAFISTGSSNIYYVDKVKGRFTISRDNAKNTLYLQMTSLRAEDTAVYYCARNYVSSYGYFDYWGQGTTVTVSS
VL: B4 VL with M4L, D9A, N22S, N28S, D64A, T89V, S95T
As to B8, in test [1], the Kd was found to be 0.0782 nM, the koff worked out at 0.000179 s⁻¹ and the kon came to 2.29e+06 M⁻¹ s⁻¹.

B9: h160-06 (antibody, human IgG1, kappa)
heavy: not shown
light: B5 light with M4L
In test [1], B9 registered a Kd of 0.0782 nM, a koff of 0.000164 s⁻¹ and a kon of 2.09e+06 M⁻¹ s⁻¹.

B10: h160-07 (antibody, human IgG1, kappa, V domains shown)
VH: B8 VH
VL: B4 VL with M4L, D9A, N28S, I62V, D64A, T89V, S95T
In test [1], B10 returned a Kd of 0.0748 nM, a koff of 0.000182 s⁻¹ and a kon of 2.43e+06 M⁻¹ s⁻¹.

B11: hu9E (antibody, human IgG1, kappa)
heavy: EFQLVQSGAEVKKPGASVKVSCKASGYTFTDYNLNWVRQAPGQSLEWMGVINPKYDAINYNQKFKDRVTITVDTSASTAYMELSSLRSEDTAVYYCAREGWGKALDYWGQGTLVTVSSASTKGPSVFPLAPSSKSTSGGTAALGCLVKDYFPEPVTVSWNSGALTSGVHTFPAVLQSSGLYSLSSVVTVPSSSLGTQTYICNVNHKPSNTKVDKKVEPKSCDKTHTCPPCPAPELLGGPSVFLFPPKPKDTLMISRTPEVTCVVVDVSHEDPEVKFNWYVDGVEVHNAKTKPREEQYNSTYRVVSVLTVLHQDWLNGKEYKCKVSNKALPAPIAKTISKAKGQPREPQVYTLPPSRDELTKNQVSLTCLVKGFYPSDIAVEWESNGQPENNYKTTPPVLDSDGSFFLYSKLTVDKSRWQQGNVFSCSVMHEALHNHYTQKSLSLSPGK
light: EIVLTQSPATLSLSPGERATLSCRASQSIYTNLHWYQQKPGQSPRLLIKYASQSISGIPARFSGSGSGTDFTLTISSLEPEDFAVYYCQQSNSWPLTFGGGTKVEIKRTVAAPSVFIFPPSDEQLKSGTASVVCLLNNFYPREAKVQWKVDNALQSGNSQESVTEQDSKDSTYSLSSTLTLSKADYEKHKVYACEVTHQGLSSPVTKSFNRGEC
notes: Humanized, human IgG1-E333A / kappa; also called h009-07E
Turning to B11, in test [2], the “IC50 (µg/ml), inhibition” value was found to be 1.56 µg/mL and the “Imax (Maximum inhibition rate %)” value is 89.6%. In test [3], this molecule showed an EC50 of 0.402 µg/mL. Further, the EC50 in test [4] was 0.0259 µg/mL. In test [5], the Kd worked out at 1.31 nM, the koff turned out to be 0.00138 s⁻¹ and the kon is 1.05e+06 M⁻¹ s⁻¹.
